The results in this text go back to patent US20240034807A1.

The term EC50 denotes the concentration that produces a half-maximal response.

Changes are numbered by the printed parent chain.

B1: Clone #6 VH domain (protein)
VH: QVQLQQWGAGLLKPSETLSLTCAVYGGSFSGYYWSWIRQPPGKGLEWIGEINHSGSTNYNPSLKSRVTISVDTSKNQFSLKLSSVTAADTATYYCARSYRTVTYYKAYFQHWGQGTLVTVSS
B2: Clone #3 VH domain (protein)
VH: KVQLQQWGAGLLKPSETLSLTCAVYGGSFSGYYWSWIRQPPGKGLEWIGEINHSGSTNYNPSLKSRVTISVDTSKNQFSLKLSSVTAADTALYYCARTYRPHSYYYYGMDVWGQGTTVTVSS
B3: Clone #11 VH domain (protein)
VH: EVQLVESGGGVVQPGRSLRLSCAASGFTFSSYAMHWVRQAPGKGLEWVSGITRSGGATFYAGSVKGRFTISRDDSTNTLYLQMNSLRAEDTAVYYCSRDPRRVDYWGQGTLVTVSS
B4: Clone #5 VH domain (protein)
VH: EVQLVESGGGVVQPGRSLRLSCAASGLTFSSYAMHWVRQAPGKGLEWIGTIRYDGNTYYNPSLKSLVTISRDDSTNTLYLQMNSLRAEDTATYYCARRRYYDSSGYRGAAFDIWGQGTLVTVSS
B5: Clone #10 VH domain (protein)
VH: EVQLVESGGGVVQPGRSLRLSCAASGFTFSSYAMHWVRQAPGKGLEWIGSIRHDGNTYYNPSLKSRVTVSRDNAKNTLYLQMDSLRAEDTAMYYCAKYGCSSISCSFDYWGQGTLVTVSS
B6: Clone #7 VH domain (protein)
VH: B5 VH with S50T, H53Y, R66L, V69I, N73D, A74S, K75T, D83N, M92L, I103T
B7: Clone #8 VH domain (protein)
VH: B5 VH with T68S
B8: Clone #9 VH domain (protein)
VH: EVQLVESGGGVVQPGRSLRLSCAASGFTFSSYAMHWVRQAPGKGLEWVSGISYNGDHTYYADSVKGRSTVSRDNAKNTLYLQMDSLRPEDTAMYYCTRNYFFDYWGQGTLVTVSS
B9: Clone #4 VH domain (protein)
VH: EVQLVESGGGVVQPGRSLRLSCAASGFTFSSYAMHWVRQAPGKGLEWVSSISGNSLYKYYADSVKGRFTISRDDSTNTLYLQMNSLRAEDTATYYCTRHWAVGNWGQGTLVTVSS
B10: Clone #12 VH domain (protein)
VH: EVQLVETGGDLAQPGESLRLSCVASGFTFSSSWMTWIRQAPGKGLEWVSSLSGRSEKTFYADSVKGRFTVSRDNAKNTLYLQMDSLRPEDTATYYCASGWALVWGQGTLVTVSS
B11: Clone #2 VH domain (protein)
VH: EVQLVESGGGVVQPGRSLRLSCAASGFTFSSYAMHWVRQAPGKGLEWIGYIYTSGSTNYNPSLKSRVTISRDDSTNTLYLQMNSLRAEDTATYYCARTPRGRDSSGYYQSPHAFDIWGQGTLVTVSS
B12: Clone #1 VH domain (protein)
VH: EVQLVESGGGVVQPGRSLRLSCAASGFTFSSYAMHWVRQAPGKALEWIGSISYSGSTYYNPSLKSRVTVSRDNAKNTLYLQMDSLRAEDTAMYYCAKYYCSGGTCYYFDYWGQGTLVTVSS

This experiment concerns the target human mesothelin polypeptide (human) (UniProt Q13421). In words: ELISA and SPR (Blitz) on a human mesothelin polypeptide. In general terms: An ELISA detects its analyte on a solid surface through an enzyme-linked reagent.
As for B1, the concentration for a half-maximal effect (EC50) worked out at 1000 nM.

Regarding B2, the EC50 is 38 nM.

With B3, the EC50 was 98 nM.

For the molecule B4, the EC50 turned out to be 298 nM.

The molecule B5 yielded an EC50 of 107 nM.

Molecule B6 came in with a concentration for a half-maximal effect (EC50) of 16.4 nM.

Molecule B7 yielded a concentration giving a half-maximal response (EC50) of 6.5 nM.

In the case of B8, the concentration for a half-maximal effect (EC50) turned out to be 944 nM.

With B9, the EC50 stood at 1.7 nM.

With B10, the EC50 came to 1.3 nM.

In turn, B11 displayed an EC50 of 1.6 nM.

With B12, the EC50 came to 1000 nM.
